Numbered stars: 1 amine (or outer) side, 2 acyl side, 3 side chain; on linkers, the order of the positions; unused ones are H or OH. Bridge positions count the residues as written; N and C are the ends. Square brackets hold non-standard residues; d marks the D form. Side chains are listed from the residue outwards. Ends that are not written are not given here. Peptide text beside a SMILES is read from it. * marks the point of attachment. R6me = (R)-2-amino-2-methyloct-7-enoic acid, C=CCCCC[C@@](C)(N[*:1])C(=O)[*:2]; Nle(6-ylidene) = O=C([C@H](CCCC=[*:3])N[*:1])[*:2]; S7 = C[C@@](CCCCCC=[*:3])(N[*:1])C(=O)[*:2]; X1 = C[C@](CCCCC=[*:3])(N[*:1])C(=O)[*:2]; Gly(pent-4-enyl) = C=CCCC[C@H](N)C(=O)O; γGlu = O=C(O)[C@H](CCC(=O)[*:2])N[*:1]; Palmitoyl = CCCCCCCCCCCCCCCC(=O)*; S5 = C=CCCC[C@](C)(N)C(=O)O; Aib = CC(C)(N)C(=O)O
B1: peptide of SEQ ID NO: 6 (TP397) (peptide)
peptide: H[dS]QGTFTSDKS[R6me]YLDERA[S7]QDFVQWLLDT-NH2
modifications: staple 12-19
B2: peptide of SEQ ID NO: 10 (TP399) (peptide)
peptide: H[dS]QGTFTSDK([γGlu-γGlu-Palmitoyl])SKYLDERAA[R6me]DFVQWL[S7]DT-NH2
modifications: staple 20-27
B3: peptide of SEQ ID NO: 11 (TP 399) (peptide)
peptide: H[dS]QGTFTSDKSKYLDERAA[R6me]DFVQWL[S7]DT-NH2
modifications: staple 20-27
B4: peptide of SEQ ID NO: 13 (TP401) (peptide)
peptide: H[Aib]QGTFTSDK([γGlu-γGlu-Palmitoyl])SKYLD[Aib]RAAQ[R6me]FVQWLM[S7]TK-NH2
modifications: staple 21-28; not fully specified (residue 30); printed as HUQGTFTSDK(γEγEC16)SKYLDURAAQ*R6meFVQWLM*S7meTKγE-NH2; also: Lys 30 conjugated by a gamma-glutamic acid (KγE)
B5: peptide of SEQ ID NO: 14 (TP402) (peptide)
peptide: H[Aib]QGTFTSDK([γGlu-γGlu-Palmitoyl])SKYLD[Aib]RAAQDFV[S5]WLM[S5]TK-NH2
modifications: staple 24-28; not fully specified (residue 30); printed as HUQGTFTSDK(γEγEC16)SKYLDURAAQDFV*S5meWLM*S5meTKγE-NH2; also: Lys 30 conjugated by a gamma-glutamic acid (KγE)
B6: peptide of SEQ ID NO: 15 (TP506) (peptide)
peptide: HXQGTFTSDXSKYLDERAAXDFVXWLLDT
modifications: as printed in Table 1: HsQGTFTSDK(γEγEC16)SKYLDERAA*S5HDFV*S5HWLLDT-NH2 (Table 2 prints HSQ...); s = D-Serine (position 2); Lys 10 conjugated to C16 fatty acid via γEγE; two *S5H = (S)-2-aminohept-6-enoic acid (positions 20 and 24) cyclized to form a double bond containing ring; C-terminal amide
B7: peptide of SEQ ID NO: 16 (TP551) (peptide)
peptide: H[Aib]QGTFTSDK([γGlu-γGlu-Palmitoyl])SKYLD[Aib]RAAQDFV[Gly(pent-4-enyl)]WLL[Gly(pent-4-enyl)]TK-NH2
modifications: staple 24-28; not fully specified (residue 30); printed as HUQGTFTSDK(γEγEC16)SKYLDURAAQDFV*S5HWLL*S5HTKγE-NH2; also: Lys 30 conjugated by a gamma-glutamic acid (KγE)
B8: peptide of SEQ ID NO: 17 (TP 556) (peptide)
peptide: HXQGTFTSDKSKYLDERAAXDFVXWLLDT
modifications: as printed: HsQGTFTSDKSKYLDERAA*S5HDFV*S5HWLLDT-NH2; s = D-Serine (position 2); two *S5H (positions 20 and 24) cyclized to form a double bond containing ring; C-terminal amide
B9: peptide of SEQ ID NO: 18 (TP 557) (peptide)
peptide: H[Aib]QGTFTSDKSKYLD[Aib]RAAQDFV[Gly(pent-4-enyl)]WLL[Gly(pent-4-enyl)]TK-NH2
modifications: staple 24-28; not fully specified (residue 30); printed as HUQGTFTSDKSKYLDURAAQDFV*S5HWLL*S5HTKγE-NH2; also: Lys 30 conjugated by a gamma-glutamic acid (KγE)
B10: peptide of SEQ ID NO: 19 (TP 558) (peptide)
peptide: HXQGTFTSDKSKYLDERAAXDFVXWLLDT
modifications: as printed: HsQGTFTSDKSKYLDERAA*S5meDFV*S5meWLLDT-NH2; s = D-Serine (position 2); two *S5me (positions 20 and 24) cyclized to form a double bond containing ring; C-terminal amide
B11: peptide of SEQ ID NO: 7 (TP397) (peptide)
peptide: HXQGTFTSDXSXYLDERAXQDFVQWLLDT
modifications: as printed: HsQGTFTSDK(γEγEC16)S*R6meYLDERA*S7meQDFVQWLLDT-NH2; s = D-Serine (position 2); Lys 10 conjugated to C16 fatty acid (-CO-(CH2)14-CH3) via γ-glutamic acid-γ-glutamic acid; *R6me (position 12) and *S7me (position 19) cyclized to form a double bond containing ring; C-terminal amide
B12: peptide of SEQ ID NO: 8 (TP398) (peptide)
peptide: HXQGTFTSDXSKYLDEXAAQDFVXWLLDT
modifications: as printed: HsQGTFTSDK(γEγEC16)SKYLDE*R6meAAQDFV*S7meWLLDT-NH2; s = D-Serine (position 2); Lys 10 conjugated to C16 fatty acid via γEγE; *R6me (position 17) and *S7me (position 24) cyclized to form a double bond containing ring; C-terminal amide
B13: peptide of SEQ ID NO: 9 (TP398) (peptide)
peptide: H[dS]QGTFTSDKSKYLDE[R6me]AAQDFV[S7]WLLDT-NH2
modifications: staple 17-24

Experiments:
human GCGR = molecular target: T1, human GCGR (Homo sapiens, UniProt P47871); test: cAMP activity assay, cells expressing human GCGR (HitHunter cAMP XS); format: cell-based; conditions: ratio of human GCGR EC50 to human GLP1R EC50
T1 construct: expressed in transfected cells; assay-ready frozen cells grown with Blasticidin and Hygromycin
Method: (§1) Activity of the peptides at the Glucagon receptor (GCGR) and GLP-1 receptor (GLP1R) was measured in a cAMP activity assay.
(§2) Peptides were dissolved in 100% DMSO and serially diluted to generate 10 point titrations. The peptide solutions were then transferred into 384-well assay plates (150 nL/well).
(§3) Assay ready frozen cells expressing human GLP1R or human GCGR were suspended in growth media consisting of DMEM medium (GIBCO), 10% FBS (GIBCO), 1x NEAA(GIBCO), 1x P/S (GIBCO), 10ug/ml Blasticidin (GIBCO) and 200 µg/mL Hygromycin (GIBCO). Cells were then diluted in assay buffer consisting of PBS (GIBCO), 7.5% BSA (Perkin Elmer), 100 µM RO 20-1724 (Sigma), with or without 20% human serum (MP Biomedical). The cell suspensions (15 µL) were then added to the assay plates containing the peptide solutions (30,000 cells/well for human GCGR; 10.000 cells/well for human GLP1R). The cells were incubated for 1 hour at room temperature in the dark. Production of cAMP was determined using HitHunter™ cAMPXS kits (DiscoverX) following manufacturer protocol. The plates were incubated for overnight at room temperature in the dark. Luminescence was measured using an EnVision Multilabel plate reader (Perkin Elmer). Native GLP-1 and Glucagon (Bachem) are used as control peptides. EC50 values were calculated using uses a 4 parameter logistic fit based on the Levenberg-Marquardt algorithm.

human GLP1R = molecular target: T2, human GLP1R (Homo sapiens, UniProt P43220); test: cAMP activity assay, cells expressing human GLP1R (HitHunter cAMP XS); format: cell-based; conditions: cAMP production, 1 hour at room temperature; assay buffer with or without 20% human serum (not stated which)
T2 construct: expressed in transfected cells; assay-ready frozen cells grown with Blasticidin and Hygromycin
Method: as §1, §2, §3

[1] = molecular target: human Glucagon receptor (GCGR) (human, UniProt P47871); test: cell-based or functional assay
[2] = molecular target: human GLP-1 receptor (GLP1R) (human, UniProt P43220); test: cell-based or functional assay

T1 sequence (P47871 26-477): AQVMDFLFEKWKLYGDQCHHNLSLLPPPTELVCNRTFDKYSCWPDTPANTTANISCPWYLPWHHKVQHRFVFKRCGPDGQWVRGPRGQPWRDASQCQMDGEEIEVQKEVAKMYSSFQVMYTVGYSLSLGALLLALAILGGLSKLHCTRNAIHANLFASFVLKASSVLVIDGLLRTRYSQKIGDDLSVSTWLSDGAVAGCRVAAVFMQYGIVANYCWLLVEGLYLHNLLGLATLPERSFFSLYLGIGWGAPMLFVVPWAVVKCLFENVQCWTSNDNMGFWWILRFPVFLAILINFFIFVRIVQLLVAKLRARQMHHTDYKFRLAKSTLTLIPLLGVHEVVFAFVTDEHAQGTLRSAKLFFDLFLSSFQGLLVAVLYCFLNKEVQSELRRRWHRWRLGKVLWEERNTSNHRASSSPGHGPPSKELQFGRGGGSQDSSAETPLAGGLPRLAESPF
T2 sequence (P43220 24-463): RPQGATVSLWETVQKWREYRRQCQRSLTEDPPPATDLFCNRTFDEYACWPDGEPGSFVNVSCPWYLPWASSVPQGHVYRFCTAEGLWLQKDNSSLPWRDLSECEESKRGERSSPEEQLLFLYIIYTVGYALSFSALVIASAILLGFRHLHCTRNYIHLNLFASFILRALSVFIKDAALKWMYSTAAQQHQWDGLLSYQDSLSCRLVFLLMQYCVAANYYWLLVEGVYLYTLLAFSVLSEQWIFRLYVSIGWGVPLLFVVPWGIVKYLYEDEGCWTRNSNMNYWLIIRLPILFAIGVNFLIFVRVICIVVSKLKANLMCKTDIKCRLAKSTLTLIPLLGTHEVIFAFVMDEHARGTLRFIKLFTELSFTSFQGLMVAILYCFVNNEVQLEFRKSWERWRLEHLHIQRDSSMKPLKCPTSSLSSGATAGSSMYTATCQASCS

| Molecule | hGCGR/hGLP1R (hTone) (human GCGR) | EC50 (human GLP1R) | GCGR EC50 human (cAMP activity assay) [1] | GLP1R EC50 human (cAMP activity assay) [2] |
| --- | --- | --- | --- | --- |
| CCCCCCCCCCCCCCCC(=O)N[C@@H](CCC(=O)N[C@@H](CCC(=O)NCCCC[C@H](NC(=O)[C@H](CC(=O)O)NC(=O)[C@H](CO)NC(=O)[C@@H](NC(=O)[C@H](Cc1ccccc1)NC(=O)[C@@H](NC(=O)CNC(=O)[C@H](CCC(N)=O)NC(=O)C(C)(C)NC(=O)[C@@H](N)Cc1c[nH]cn1)[C@@H](C)O)[C@@H](C)O)C(=O)N[C@@H](CO)C(=O)N[C@@H](CCCCN)C(=O)N[C@@H](Cc1ccc(O)cc1)C(=O)N[C@@H](CC(C)C)C(=O)N[C@@H](CC(=O)O)C(=O)NC(C)(C)C(=O)N[C@@H](CCCNC(=N)N)C(=O)N[C@@H](C)C(=O)N[C@@H](C)C(=O)N[C@@H](CCC(N)=O)C(=O)N[C@@H](CC(=O)O)C(=O)N[C@@H](Cc1ccccc1)C(=O)N[C@H](C(=O)N[C@@]1(C)CCCC=CCCC[C@@](C)(C(=O)N[C@H](C(=O)N[C@@H](CCCCN)C(=O)N[C@@H](CCC(N)=O)C(=O)O)[C@@H](C)O)NC(=O)[C@H](CCSC)NC(=O)[C@H](CC(C)C)NC(=O)[C@H](Cc2c[nH]c3ccccc23)NC1=O)C(C)C)C(=O)O)C(=O)O [compound 14] (H-H[Aib]QGTFTSDK([γGlu-γGlu-Palmitoyl])SKYLD[Aib]RAAQDFV[S5]WLM[S5]TKQ-OH; staple 24-28) | 35.14 | 0.13 nM |  |  |
| CC(C)C[C@@H]1NC(=O)[C@H](Cc2c[nH]c3ccccc23)NC(=O)[C@@H](NC(=O)[C@@H](NC(=O)[C@H](Cc2ccccc2)NC(=O)[C@H](CC(=O)O)NC(=O)[C@H](CCC(N)=O)NC(=O)[C@H](C)NC(=O)[C@H](C)NC(=O)[C@H](CCCNC(=N)N)NC(=O)C(C)(C)NC(=O)[C@H](CC(=O)O)NC(=O)[C@H](CC(C)C)NC(=O)[C@H](Cc2ccc(O)cc2)NC(=O)[C@H](CCCCN)NC(=O)[C@H](CO)NC(=O)[C@H](CCCCN)NC(=O)[C@H](CC(=O)O)NC(=O)[C@H](CO)NC(=O)[C@@H](NC(=O)[C@H](Cc2ccccc2)NC(=O)[C@@H](NC(=O)CNC(=O)[C@H](CCC(N)=O)NC(=O)C(C)(C)NC(=O)[C@@H](N)Cc2c[nH]cn2)[C@@H](C)O)[C@@H](C)O)C(C)C)CCCC=CCCC[C@@H](C(=O)N[C@H](C(=O)N[C@@H](CCCCN)C(=O)N[C@@H](CCC(N)=O)C(=O)O)[C@@H](C)O)NC(=O)[C@H](CC(C)C)NC1=O [compound 18] (H-H[Aib]QGTFTSDKSKYLD[Aib]RAAQDFV[Nle(6-ylidene)]WLL[Nle(6-ylidene)]TKQ-OH; staple 24-28) | 33.1 | 0.13 nM |  |  |
| CCCCCCCCCCCCCCCC(=O)N[C@@H](CCC(=O)N[C@@H](CCC(=O)NCCCC[C@H](NC(=O)[C@H](CC(=O)O)NC(=O)[C@H](CO)NC(=O)[C@@H](NC(=O)[C@H](Cc1ccccc1)NC(=O)[C@@H](NC(=O)CNC(=O)[C@H](CCC(N)=O)NC(=O)[C@@H](CO)NC(=O)[C@@H](N)Cc1c[nH]cn1)[C@@H](C)O)[C@@H](C)O)C(=O)N[C@@H](CO)C(=O)N[C@@H](CCCCN)C(=O)N[C@@H](Cc1ccc(O)cc1)C(=O)N[C@@H](CC(C)C)C(=O)N[C@@H](CC(=O)O)C(=O)N[C@@H](CCC(=O)O)C(=O)N[C@@H](CCCNC(=N)N)C(=O)N[C@@H](C)C(=O)N[C@@H](C)C(=O)N[C@]1(C)CCCCC=CCCCCC[C@@](C)(C(=O)N[C@@H](CC(=O)O)C(=O)N[C@H](C(N)=O)[C@@H](C)O)NC(=O)[C@H](CC(C)C)NC(=O)[C@H](Cc2c[nH]c3ccccc23)NC(=O)[C@H](CCC(N)=O)NC(=O)[C@H](C(C)C)NC(=O)[C@H](Cc2ccccc2)NC(=O)[C@H](CC(=O)O)NC1=O)C(=O)O)C(=O)O [compound 10] (H-H[dS]QGTFTSDK([γGlu-γGlu-Palmitoyl])SKYLDERAA[X1]DFVQWL[S7]DT-NH2; staple 20-27) | 19.02 |  |  |  |
| CC(C)C[C@H](NC(=O)[C@H](Cc1ccc(O)cc1)NC(=O)[C@H](CCCCN)NC(=O)[C@H](CO)NC(=O)[C@H](CCCCN)NC(=O)[C@H](CC(=O)O)NC(=O)[C@H](CO)NC(=O)[C@@H](NC(=O)[C@H](Cc1ccccc1)NC(=O)[C@@H](NC(=O)CNC(=O)[C@H](CCC(N)=O)NC(=O)[C@@H](CO)NC(=O)[C@@H](N)Cc1c[nH]cn1)[C@@H](C)O)[C@@H](C)O)C(=O)N[C@@H](CC(=O)O)C(=O)N[C@@H](CCC(=O)O)C(=O)N[C@@H](CCCNC(=N)N)C(=O)N[C@@H](C)C(=O)N[C@@H](C)C(=O)N[C@@]1(C)CCCC=CCCC[C@@](C)(C(=O)N[C@@H](Cc2c[nH]c3ccccc23)C(=O)N[C@@H](CC(C)C)C(=O)N[C@@H](CC(C)C)C(=O)N[C@@H](CC(=O)O)C(=O)N[C@H](C(N)=O)[C@@H](C)O)NC(=O)[C@H](C(C)C)NC(=O)[C@H](Cc2ccccc2)NC(=O)[C@H](CC(=O)O)NC1=O [compound 19] (H-H[dS]QGTFTSDKSKYLDERAA[S5]DFV[S5]WLLDT-NH2; staple 20-24) | 0.77 |  |  |  |
| B1 |  |  | 20 nM | 5.3 nM |
| B2 |  |  | 8.64 nM | 0.45 nM |
| B3 |  |  | 5 nM | 2.74 nM |
| B4 |  |  | 5 nM | 0.26 nM |
| B5 |  |  | 4.56 nM | 0.13 nM |
| B6 |  |  | 0.67 nM | 1.5 nM |
| B7 |  |  | 0.48 nM | 0.18 nM |
| B8 |  |  | 3.38 nM | 2.38 nM |
| B9 |  |  | 4.25 nM | 0.13 nM |
| B10 |  |  | 2.15 nM | 2.79 nM |
| B11 |  |  | 5 nM | 0.77 nM |
| B12 |  |  | 5 nM | 2.28 nM |
| B13 |  |  | 5 nM | 5 nM |

Source: patent US20230270825A1, “STAPLED OLEFIN CO-AGONISTS OF THE GLUCAGON AND GLP-1 RECEPTORS” (Merck Sharp & Dohme LLC, priority 2019, published 2023)
